Assay results from patent US20090304686A1, “INTERFERING IN ACTIVATION OF AN IMMUNE CELL BY INFLUENCING INTERACTION OF LAIR AND COLLAGEN” (UNIVERSOTAIR MEDISCH CENTRUM UTRECHT, priority 2006, published 2009).

B1: wild-type LAIR-2: wild-type LAIR-2 protein in concentrated supernatant from LAIR-2-transfected 293T cells (protein)
chain: QEGALPRPSISAEPGTVISPGSHVTFMCRGPVGVQTFRLEREDRAKYKDSYNVFRLGPSESEARFHIDSVSEGNAGLYRCLYYKPPGWSEHSDFLELLVKGTVPGTEASGFDAP
B2: hLAIR-1-IgG: Chimeric protein of human LAIR-1 fused to the Fc region of human IgG1 (protein)
chain: QEEDLPRPSISAEPGTVIPLGSHVTFVCRGPVGVQTFRLERDSRSTYNDTEDVSQASPSESEARFRIDSVREGNAGLYRCIYYKPPKWSEQSDYLELLVKESSGGPDSPDTEPGSSAGPTQRPSDNSHNEHAPASQGLKAEHLY
modifications: left off: a dimerising Fc or GST
notes: Chimeric protein of human LAIR-1 fused to the Fc region of human IgG1

Key:
[1] = tested on: hLAIR-1/collagen interaction; assay: Blocking of binding of hLAIR-1 expressing K562 cells to plate-bound collagens I and III; type: cell-based, human; conditions: pre-incubation of plate-bound collagens
Description: Purified commercial collagens I, III (Sigma), II (Chemicon International), or BSA (100 μl/well, 20 μg/ml in PBS, 2 mM acetic acid) were coated overnight at 4° C. in 96-well MAXIsorp (Nunc) flat-bottom plates. After washings, wells were blocked with 1% (w/v) BSA. Meanwhile, 5×10^6 cells/ml wild type K562 cells or K562 transfectants were fluorescently labeled for 30 min at 37° C. with 5 μM calceine AM (Molecular Probes) in PBS. Cells were washed twice with RPMI/1% FCS and 100 μl medium of 1.5×10^6 cells/ml cells was added to each well and plates were incubated at 37° C. for 2 h. Input fluorescence was determined using a fluorescence plate reader (Fluoroskan Ascent, Thermo Labsystems), the plates were firmly flicked and washed for six times in culture medium. The retained fluorescence was determined for each well as a percentage of input fluorescence.
96-well MAXIsorp flat-bottom plates (Nunc) were coated overnight at 4° C. with purified collagens I or III (Sigma, 2 and 5 μg/ml respectively) or BSA (5 μg/ml) in 100 μl PBS, supplemented with 2 mM acetic acid. 5×10^6 cells/ml wild-type K562 or K562 stably transfected with hLAIR-1 were assayed for their capacity to adhere to the collagens in the 96 well plates as described before(15).

[2] = tested on: endogenous hLAIR-1 ligand(s) on HT29 cells; assay: Fusion protein blocking study on HT29 cells (flow cytometry); type: cell-based, human
Description: For fusion protein blocking studies, chimeric proteins of the extracellular domain of hLAIR-1 or LAIR-2 fused to the Fc region of human IgG1 were prepared as described previously(19). HT29 cells were pre-treated with 10% normal mouse serum to block aspecific interactions. Subsequently, HT29 cells were incubated with unlabeled hLAIR-1-IgG or LAIR-2-IgG for 10 minutes at room temperature and subsequently incubated with biotinylated hLAIR-1-IgG or LAIR-2-IgG for 30 minutes at room temperature. Binding of biotinylated proteins was detected with allophycocyanin (APC) conjungated streptavidin (BD Biosciences, San Diego, Calif.) and cells were analyzed by flow cytometry (FACSCalibur™, BD).

human collagen type I = biological target: T1, human collagen type I (Homo sapiens, UniProt P02452+P08123); assay: Surface plasmon resonance (BIAcore) binding of LAIR-IgG fusion proteins to immobilized collagen I
T1 construct: purchased Sigma
T1 sequence (P02452 162-1218 limits assumed): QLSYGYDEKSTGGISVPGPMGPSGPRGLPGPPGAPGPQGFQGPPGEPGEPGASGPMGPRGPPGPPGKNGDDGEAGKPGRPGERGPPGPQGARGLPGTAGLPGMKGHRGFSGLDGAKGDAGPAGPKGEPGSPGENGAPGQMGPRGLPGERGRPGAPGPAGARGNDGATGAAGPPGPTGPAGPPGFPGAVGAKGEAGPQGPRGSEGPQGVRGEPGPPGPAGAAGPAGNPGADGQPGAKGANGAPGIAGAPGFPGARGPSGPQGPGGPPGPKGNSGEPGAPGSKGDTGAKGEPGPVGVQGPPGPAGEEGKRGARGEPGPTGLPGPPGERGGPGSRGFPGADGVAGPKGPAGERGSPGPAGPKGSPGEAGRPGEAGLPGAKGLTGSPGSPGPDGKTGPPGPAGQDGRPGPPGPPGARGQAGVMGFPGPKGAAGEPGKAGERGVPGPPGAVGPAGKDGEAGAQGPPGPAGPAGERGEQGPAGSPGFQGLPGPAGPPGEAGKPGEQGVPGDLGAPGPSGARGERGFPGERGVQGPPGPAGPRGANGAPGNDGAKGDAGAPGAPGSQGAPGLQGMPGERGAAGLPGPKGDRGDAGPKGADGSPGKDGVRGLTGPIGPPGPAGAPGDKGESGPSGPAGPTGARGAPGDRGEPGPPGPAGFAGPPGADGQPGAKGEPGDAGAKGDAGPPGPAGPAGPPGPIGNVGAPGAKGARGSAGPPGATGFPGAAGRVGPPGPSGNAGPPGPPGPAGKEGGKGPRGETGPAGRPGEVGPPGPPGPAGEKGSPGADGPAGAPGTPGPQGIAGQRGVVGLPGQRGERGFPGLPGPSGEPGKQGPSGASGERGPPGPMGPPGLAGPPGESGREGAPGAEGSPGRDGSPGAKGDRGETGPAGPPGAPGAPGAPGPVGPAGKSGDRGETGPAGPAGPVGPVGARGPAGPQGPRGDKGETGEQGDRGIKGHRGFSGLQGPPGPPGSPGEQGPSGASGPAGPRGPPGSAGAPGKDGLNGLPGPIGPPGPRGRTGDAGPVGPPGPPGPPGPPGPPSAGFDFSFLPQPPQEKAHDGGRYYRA
T1 sequence (P08123 80-1119 limits assumed): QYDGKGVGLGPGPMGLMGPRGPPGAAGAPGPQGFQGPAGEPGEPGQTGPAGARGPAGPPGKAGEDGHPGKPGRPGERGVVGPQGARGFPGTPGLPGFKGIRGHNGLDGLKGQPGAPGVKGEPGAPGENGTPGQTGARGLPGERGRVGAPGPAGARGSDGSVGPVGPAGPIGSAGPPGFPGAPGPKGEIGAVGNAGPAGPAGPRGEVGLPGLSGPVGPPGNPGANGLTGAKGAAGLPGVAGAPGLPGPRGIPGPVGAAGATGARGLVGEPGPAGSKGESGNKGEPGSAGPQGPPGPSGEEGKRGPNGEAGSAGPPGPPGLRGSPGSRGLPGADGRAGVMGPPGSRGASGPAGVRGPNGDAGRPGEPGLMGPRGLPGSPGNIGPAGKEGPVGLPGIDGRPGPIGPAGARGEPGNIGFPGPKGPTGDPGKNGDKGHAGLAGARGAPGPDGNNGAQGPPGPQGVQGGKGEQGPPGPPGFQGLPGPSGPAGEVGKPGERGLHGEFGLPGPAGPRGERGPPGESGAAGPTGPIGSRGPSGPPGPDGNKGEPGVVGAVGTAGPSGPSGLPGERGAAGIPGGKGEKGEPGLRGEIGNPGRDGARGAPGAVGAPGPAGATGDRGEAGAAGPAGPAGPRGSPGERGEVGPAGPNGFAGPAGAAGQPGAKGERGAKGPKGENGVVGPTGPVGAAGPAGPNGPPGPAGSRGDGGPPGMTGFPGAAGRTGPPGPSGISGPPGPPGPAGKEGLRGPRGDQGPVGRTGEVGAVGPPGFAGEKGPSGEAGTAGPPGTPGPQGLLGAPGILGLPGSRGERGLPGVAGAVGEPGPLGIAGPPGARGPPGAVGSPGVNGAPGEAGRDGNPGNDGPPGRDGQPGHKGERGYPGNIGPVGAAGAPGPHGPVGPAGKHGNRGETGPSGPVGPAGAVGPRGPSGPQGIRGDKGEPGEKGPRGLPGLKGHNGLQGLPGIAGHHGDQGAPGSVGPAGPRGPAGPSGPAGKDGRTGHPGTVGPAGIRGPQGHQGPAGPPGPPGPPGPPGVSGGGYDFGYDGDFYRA
Description: (§1) Surface plasmon resonance (BIAcore) binding studies were performed using a BIAcore2000 system (BIAcore AB, Uppsala, Sweden). Approximately 2000-3000 response units (RU) of acid-soluble human collagen type I or III (Sigma) were immobilized on a CM5 biosensor chip using the amine coupling kit as instructed by the supplier. Immobilized triple-helical peptides composed of GCO(GPO)10GCOG-NH2 ((GPO)10, also known as collagen-related peptide, CRP^6) and GCP(GPP)10GCPG-NH2 ((GPP)10) were described previously^6. Approximately 250 RU (GPP)10 or (GPO)10 peptide trimers were immobilized using a cysteine coupling kit according manufacturers instructions. Analysis was performed in buffer (125 mM NaCl, 2.5 mM CaCl2, 0.005% (v/v) Tween 20, and 25 mM Hepes, (pH 7.4)) at 25° C. at a flow rate of 20 μl/min for collagen I and III interaction-studies and 5 μl/min for the immobilized peptides. […] Increasing concentrations of hLAIR-1-IgG were injected and allowed to reach an equilibrium plateau for 10 minutes. The delay between injections was 13 min, during which time the biosensor chip was flushed with buffer. In case of peptide-binding studies, biosensor chips were regenerated by injection of 0.1 M H3PO4 (2 min, 5 μl/min).
(§2) Dissociation constants (Kd) and the number of binding sites expressed as the response at infinite hLAIR-1-IgG concentration (Bmax) were calculated as follows. First, the response at equilibrium (Req) was calculated for each association curve. Subsequently, Kd and Bmax were determined from the binding isotherms (Req plotted against hLAIR-1-IgG concentration) by fitting equation Req=Bmax*[hLAIR-1-IgG]/(Kd+[hLAIR-1-IgG]). The fit was calculated using computer program GraphPad Prism (GraphPad Prism version 3.00 for Windows; GraphPad Software, San Diego, Calif., USA). […]
(§3) The surface plasmon resonance binding studies were performed as described before(15). LAIR-2-IgG dimer concentration was calculated based on a theoretical mass of 82.5 kDa.

human collagen type III = biological target: T2, human collagen type III (Homo sapiens, UniProt P02461); assay: Surface plasmon resonance (BIAcore) binding of LAIR-IgG fusion proteins to immobilized collagen III
T2 construct: purchased Sigma
T2 sequence (P02461 154-1221 limits assumed): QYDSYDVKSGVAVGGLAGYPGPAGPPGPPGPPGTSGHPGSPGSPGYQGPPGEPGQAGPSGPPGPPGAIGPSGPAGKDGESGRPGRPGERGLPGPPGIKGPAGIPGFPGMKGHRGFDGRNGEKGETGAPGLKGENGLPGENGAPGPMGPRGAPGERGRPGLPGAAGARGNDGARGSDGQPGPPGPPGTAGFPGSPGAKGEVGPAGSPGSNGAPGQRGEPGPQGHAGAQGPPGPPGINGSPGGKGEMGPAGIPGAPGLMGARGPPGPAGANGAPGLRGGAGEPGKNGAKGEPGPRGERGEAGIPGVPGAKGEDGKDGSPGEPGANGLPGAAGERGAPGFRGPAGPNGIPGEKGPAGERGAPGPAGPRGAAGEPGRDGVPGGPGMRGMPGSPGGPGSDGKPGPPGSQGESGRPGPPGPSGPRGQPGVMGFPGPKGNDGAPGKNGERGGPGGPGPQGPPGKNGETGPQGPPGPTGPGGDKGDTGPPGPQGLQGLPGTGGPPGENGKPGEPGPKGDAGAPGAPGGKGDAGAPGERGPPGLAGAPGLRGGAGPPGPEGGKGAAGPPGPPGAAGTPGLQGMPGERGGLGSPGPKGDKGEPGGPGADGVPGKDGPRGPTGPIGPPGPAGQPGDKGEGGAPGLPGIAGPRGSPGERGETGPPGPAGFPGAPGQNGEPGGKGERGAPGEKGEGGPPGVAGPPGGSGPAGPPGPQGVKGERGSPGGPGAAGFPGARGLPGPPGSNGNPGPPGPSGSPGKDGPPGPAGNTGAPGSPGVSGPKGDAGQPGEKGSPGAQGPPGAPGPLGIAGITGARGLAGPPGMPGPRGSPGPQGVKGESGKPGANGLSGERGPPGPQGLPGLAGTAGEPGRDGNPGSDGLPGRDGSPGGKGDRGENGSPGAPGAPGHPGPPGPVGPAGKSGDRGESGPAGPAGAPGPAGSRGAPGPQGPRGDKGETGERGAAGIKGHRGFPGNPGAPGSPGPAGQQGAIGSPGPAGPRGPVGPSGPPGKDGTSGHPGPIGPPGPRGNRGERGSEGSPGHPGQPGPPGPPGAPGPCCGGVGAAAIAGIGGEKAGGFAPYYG
Description: as §1, §2, §3

human collagen XVII = biological target: T3, human collagen XVII (Homo sapiens, UniProt Q9UMD9); assay: LAIR fusion protein staining of Ba/F3 cells transfected with human collagen XVII; type: binding
T3 construct: Full-length human collagen XVII, HIS-tagged human collagen XIII, and human KIR3DL1 were kindly provided; expressed in transfected cells; host or cells: Ba/F3 (retroviral transduction)
T3 sequence (Q9UMD9 1-1497): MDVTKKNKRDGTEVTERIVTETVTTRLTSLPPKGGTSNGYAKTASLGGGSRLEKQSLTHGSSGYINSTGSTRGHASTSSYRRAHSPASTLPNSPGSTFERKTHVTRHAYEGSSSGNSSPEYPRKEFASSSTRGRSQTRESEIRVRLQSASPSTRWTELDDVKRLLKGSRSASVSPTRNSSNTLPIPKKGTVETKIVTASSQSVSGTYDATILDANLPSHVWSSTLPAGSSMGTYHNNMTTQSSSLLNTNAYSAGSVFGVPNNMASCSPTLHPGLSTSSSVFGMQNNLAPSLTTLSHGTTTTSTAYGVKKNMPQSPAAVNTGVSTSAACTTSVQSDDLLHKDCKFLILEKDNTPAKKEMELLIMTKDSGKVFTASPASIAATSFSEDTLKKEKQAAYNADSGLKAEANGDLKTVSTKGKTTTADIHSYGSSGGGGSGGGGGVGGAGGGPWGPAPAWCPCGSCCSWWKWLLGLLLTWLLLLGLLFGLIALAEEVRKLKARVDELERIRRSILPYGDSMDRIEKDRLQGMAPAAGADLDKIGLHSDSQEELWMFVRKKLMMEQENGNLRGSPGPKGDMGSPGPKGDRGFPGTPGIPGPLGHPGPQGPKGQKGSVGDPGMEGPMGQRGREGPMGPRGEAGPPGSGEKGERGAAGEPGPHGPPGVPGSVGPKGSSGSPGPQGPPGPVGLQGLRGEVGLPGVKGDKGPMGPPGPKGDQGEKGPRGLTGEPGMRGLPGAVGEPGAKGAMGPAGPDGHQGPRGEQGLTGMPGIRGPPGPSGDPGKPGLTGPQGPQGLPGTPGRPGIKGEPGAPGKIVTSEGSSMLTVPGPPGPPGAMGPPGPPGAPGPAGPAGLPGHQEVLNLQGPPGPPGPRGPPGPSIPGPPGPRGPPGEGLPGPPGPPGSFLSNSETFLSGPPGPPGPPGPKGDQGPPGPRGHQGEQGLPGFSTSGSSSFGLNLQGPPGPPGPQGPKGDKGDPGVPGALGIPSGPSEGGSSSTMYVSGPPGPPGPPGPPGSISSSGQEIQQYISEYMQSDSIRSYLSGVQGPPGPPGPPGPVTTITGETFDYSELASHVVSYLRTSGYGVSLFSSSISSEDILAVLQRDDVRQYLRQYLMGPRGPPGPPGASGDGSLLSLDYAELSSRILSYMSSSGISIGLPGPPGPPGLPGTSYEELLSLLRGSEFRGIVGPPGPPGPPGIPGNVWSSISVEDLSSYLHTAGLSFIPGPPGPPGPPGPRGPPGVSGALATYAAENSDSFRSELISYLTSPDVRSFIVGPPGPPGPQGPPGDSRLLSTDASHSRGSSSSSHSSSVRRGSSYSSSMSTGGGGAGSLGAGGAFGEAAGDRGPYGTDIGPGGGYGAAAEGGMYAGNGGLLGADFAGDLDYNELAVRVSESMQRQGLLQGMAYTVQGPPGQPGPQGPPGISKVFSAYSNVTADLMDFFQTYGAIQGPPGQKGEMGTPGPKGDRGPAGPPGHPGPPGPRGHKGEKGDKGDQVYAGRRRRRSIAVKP
Description: Chimeric proteins of rat, mouse, and human LAIR-1 or human LAIR-2 fused to the Fc region of human IgG1 were prepared and cell lines were stained with these reagents in the absence or presence of blocking antibodies as described previously^11. When indicated, cells were incubated for 1 h with 100 units/ml chromatography purified C. histolyticum collagenase Type VII (Sigma) prior fusion-protein staining.

Molecule | blocking of binding of hLAIR-1 expressing K562 cells to plate-bound collagens I and III [1] | biotinylated LAIR-2-IgG staining of HT29 cells after pre-incubation [2] | binding to collagen I (in words) (human collagen type I) | higher affinity as compared to most IgSF-members interacting with their ligands (human collagen type I; collagen I and III) | number of LAIR molecules / binding sites per single triple-helical collagen I molecule (Bmax) (human collagen type I; from Bmax of binding isotherm) | binding to collagen III (in words) (human collagen type III) | number of LAIR molecules / binding sites per single triple-helical collagen III molecule (Bmax) (human collagen type III; from Bmax of binding isotherm) | dissociation from collagen (in words) (human collagen type III; hLAIR-1-IgG: collagen I and III, LAIR-2-IgG: collagen III, collagen I comparable) | binding to Ba/F3 cells stably transfected with human collagen XVII (human collagen XVII)
B1 | blocked |  |  |  |  |  |  |  | 
B2 |  | reduced | high affinity | 20-1000 fold | approximately 10.4 | high affinity | ~9.7 | relatively slow dissociation | specific binding
